The record followed here is the RNAGym collection of RNA variant scans (doi:10.7554/elife.80360).

B1: HDV Ribozyme (parent)
chain: GGCCGGCAUGGUCCCAGCCUCCUCGCUGGCGCCGGCUGGGCAACAUUCCGAGGGGACCGUCCCCUCGGUAAUGGCGAAUGGGACCCA

The variants in this series derive from B1. The experiment in a line: self-cleavage, relative activity (ratio to wild type); higher = more cleavage; co-transcriptional.
For GGCCGGCAUGGUCCCAGCUUCCCCGCUGGCGCCGGCUGGGCAACAUUCCGAGGGGACCGUCCCCUCGGUAAUGGCGAAUGGGACCCA [C19U U23C], the self-cleavage came out at 0.

GGCCGGCAUGGUCCCAGCUUCCUCGCUGGCGCCGGCUGGGCAACAUUCCGAGGGGACCGUCCCCUCGGUAAUGGCGAAUGGGACACA [C19U C85A]: the self-cleavage worked out at 0.0378.

For the variant GGCCGGCAUGGUCCCAGCUUCCUCGCUGGCGCCGGCUGGGCAACAUUCCGAGGGGACCGUCCACUCGGUAAUGGCGAAUGGGACCCA [C19U C63A], the self-cleavage was 0.199.

As for GGCCGGCAUGGUCCCAGCCACAUCGCUGGCGCCGGCUGGGCAACAUUCCGAGGGGACCGUCCCCUCGGUAAUGGCGAAUGGGACCCA [U20A C22A], the self-cleavage stood at 0.0898.

For GGCCGGCAUGGUCCCAGCUUCCUCGCUGGCGCCGGCUGGGCAACAUUCCGAGGGGACCGUCCCCUCGGUAAUGGCAAAUGGGACCCA [C19U G76A], the self-cleavage stood at 0.197.

Regarding GGCCGGCAUGGUCCCAGCUUCCUCGCUGGCGCCGGCUGGGCAACAUUCCGAGGGGACCGUCCCCUCGGUAAGGGCGAAUGGGACCCA [C19U U72G], the self-cleavage came out at 0.0396.

On to GGCCGGCAUGGUCCCAGCCACCUCGCUGGCGCCGGCUGGGCAACAUUUCGAGGGGACCGUCCCCUCGGUAAUGGCGAAUGGGACCCA [U20A C48U], for which the self-cleavage came to 0.

Consider GGCCGGCAUGGUCCCAGCUUCCUCGCUGGCGCCGGCUGGGCAACAUUCCGAGGGUACCGUCCCCUCGGUAAUGGCGAAUGGGACCCA [C19U G55U], for which the self-cleavage worked out at 0.0573.

For the variant GGCCGGCAUGGUCCCAGCCACCUCGCUGGCGCCGGCUGGGCAACUUUCCGAGGGGACCGUCCCCUCGGUAAUGGCGAAUGGGACCCA [U20A A45U], the self-cleavage is 0.

With GGCCGGCAUGGUCCCAGCUUCCUCGCUGGCGCCGGCUGGGCAACAUUCCGAGGGGACCAUCCCCUCGGUAAUGGCGAAUGGGACCCA [C19U G59A], the self-cleavage was determined as 0.145.

In the case of GGCCGGCAUGGUCCCAGCCACCUCGCUGGCGCCGGCUGGGCAACAUUCAGAGGGGACCGUCCCCUCGGUAAUGGCGAAUGGGACCCA [U20A C49A], the self-cleavage came to 0.

Take GGCCGGCAUGGUCCCAGCCACCUCGCUGGCGCCGGCUGGGCAACAUUCGGAGGGGACCGUCCCCUCGGUAAUGGCGAAUGGGACCCA [U20A C49G]: the self-cleavage was 0.128.

On to GGCCGGCAUGGUCCCAGCUUCCUCGCUGGCGCCGGCUGGGCAACAUUCCGAGGGGACCGUCCCCUCGGUAAUGUCGAAUGGGACCCA [C19U G74U], for which the self-cleavage is 0.0762.

Turning to GGCCGGCAUGGUCCCAGCUUCCUCGCUGGCGGCGGCUGGGCAACAUUCCGAGGGGACCGUCCCCUCGGUAAUGGCGAAUGGGACCCA [C19U C32G], the self-cleavage was 0.0482.

With GGCCGGCAUGGUCCCAGCUUCCUCGCUGACGCCGGCUGGGCAACAUUCCGAGGGGACCGUCCCCUCGGUAAUGGCGAAUGGGACCCA [C19U G29A], the self-cleavage was 0.102.

For GGCCGGCAUGGUCCCAGCCACCUCGCUGGCGGCGGCUGGGCAACAUUCCGAGGGGACCGUCCCCUCGGUAAUGGCGAAUGGGACCCA [U20A C32G], the self-cleavage stood at 0.111.

GGCCGGCAUGGUCCCAGCUUCCUCUCUGGCGCCGGCUGGGCAACAUUCCGAGGGGACCGUCCCCUCGGUAAUGGCGAAUGGGACCCA [C19U G25U]: the self-cleavage is 0.188.

On to GGCCGGCAUGGUCCCAGCUUCCUCCCUGGCGCCGGCUGGGCAACAUUCCGAGGGGACCGUCCCCUCGGUAAUGGCGAAUGGGACCCA [C19U G25C], for which the self-cleavage was 0.0489.

With GGCCGGCAUGGUCCCAGCUUCCUCGCUGGUGCCGGCUGGGCAACAUUCCGAGGGGACCGUCCCCUCGGUAAUGGCGAAUGGGACCCA [C19U C30U], the self-cleavage worked out at 0.0608.

Regarding GGCCGGCAUGGUCCCAGCUUCCUCGCUGGCGCCGGCUGGGCAACAUUCCGAGGGGACCGUCCCCUCGGUAAUUGCGAAUGGGACCCA [C19U G73U], the self-cleavage came to 0.12.

For GGCCGGCAUGGUCCCAGCUUCCUCGCUGGCGCCGGCUGGGCAACAUUCCGAGGGGACCGUCCCCUCGGUAAUAGCGAAUGGGACCCA [C19U G73A], the self-cleavage stood at 0.122.

As to GGCCGGCAUGGUCCCAGCUUCCUCGCUGGCGCCGGCUGGGCAACAUUCCGAGGGGACCGUCCCCUCGGUAAUCGCGAAUGGGACCCA [C19U G73C], the self-cleavage was determined as 0.0479.

Regarding GGCCGGCAUGGUCCCAGCUUCCUCGCUGGCGCCGGCUGCGCAACAUUCCGAGGGGACCGUCCCCUCGGUAAUGGCGAAUGGGACCCA [C19U G39C], the self-cleavage was found to be 0.133.

For the variant GGCCGGCAUGGUCCCAGCUUCCUCGCUGGCGCCGGCUGGGCAACAUUCCUAGGGGACCGUCCCCUCGGUAAUGGCGAAUGGGACCCA [C19U G50U], the self-cleavage stood at 0.159.

In the case of GGCCGGCAUGGUCCCAGCUUCCUCGCUGGCGCCGGCUAGGCAACAUUCCGAGGGGACCGUCCCCUCGGUAAUGGCGAAUGGGACCCA [C19U G38A], the self-cleavage worked out at 0.0875.

As to GGCCGGCAUGGUCCCAGCUUCCUCGCUGGCGCCGGCUGGGCAACAUUCCGAGGGGACCGUCCCCUCCGUAAUGGCGAAUGGGACCCA [C19U G67C], the self-cleavage was found to be 0.0715.

Consider GGCCGGCAUGGUCCCAGCCACCUCGCUGGCGCCGGCUGGGCAACAUUCCGAGGGGACCGUACCCUCGGUAAUGGCGAAUGGGACCCA [U20A C61A], for which the self-cleavage was determined as 0.111.

For the variant GGCCGGCAUGGUCCCAGCCACCUCGCUGGCGCAGGCUGGGCAACAUUCCGAGGGGACCGUCCCCUCGGUAAUGGCGAAUGGGACCCA [U20A C33A], the self-cleavage was determined as 0.

For the variant GGCCGGCAUGGUCCCAGCCACCUCGCUGGCGCCGGCUGGGCGACAUUCCGAGGGGACCGUCCCCUCGGUAAUGGCGAAUGGGACCCA [U20A A42G], the self-cleavage amounted to 0.

As to GGCCGGCAUGGUCCCAGCUUCCUCGCUGGCGCCGGCUGGGCAACAUUCCGAGGGGACCGUCCCCUCGGUAAUGGCGAAUGGCACCCA [C19U G82C], the self-cleavage was 0.0817.

For the variant GGCCGGCAUGGUCCCAGCUUCCUCGCUGGCGCCGGCUGGGCAACAUUCCGAGGGGACCGUCCCCUCGGUAAUGGCGAAUGGAACCCA [C19U G82A], the self-cleavage came to 0.0511.

As to GGCCGGCAUGGUCCCAGCUUCUUCGCUGGCGCCGGCUGGGCAACAUUCCGAGGGGACCGUCCCCUCGGUAAUGGCGAAUGGGACCCA [C19U C22U], the self-cleavage is 0.058.
